Here are results for 4 molecules from patent US20180080926A1.

Like-named read-outs stand apart in the source and are kept apart here.

The target in experiment [1] is mitochondrial mitofusins. The experiment can be described thus: cell-based or functional assay.
The target of experiment [2] is mitochondrial mitofusins. As to the kind of experiment: cell-based or functional assay. The source holds these as a separate data set.

Turning to TAT-367-384Gly (peptide), the EC50 of mitochondrial elongation (enhanced fusion), mitochondrial aspect ratio in MEFs in experiment [1] is 280 nM.

For the molecule TAT-398-418Gly (peptide), the EC50 of mitochondrial shortening (suppressed fusion), mitochondrial aspect ratio in MEFs in experiment [1] worked out at 250 nM.

B1: GoFuse-C fusion construct (peptide)
peptide: GIMDSLHMAARGGYGRKKRRQRRR
Take B1: the EC50 of mitochondrial elongation (enhanced fusion), mitochondrial aspect ratio in MEFs in experiment [2] was 389 nM.

B2: TetherX-C fusion construct (peptide)
peptide: GELLAQDYKLRGGYGRKKRRQRRR
With B2, the EC50 of mitochondrial shortening (suppressed fusion), mitochondrial aspect ratio in MEFs in experiment [2] was 171 nM.
